The values that follow come from publication PMC7506556, “Structure and function of bacteriophage CBA120 ORF211 (TSP2), the determinant of phage specificity towards E. coli O157:H7” (Scientific Reports, 2020).

Sequences and labels used below:
B1: D506A:D571A TSP2 (enzyme, UniProt G3M190 1-921, looked up)
chain: MTRNVEELFGGVITAPHQIPFTYKSNVGGETFLSLPFYPVTGVVTINGGMQVPLDNFEIEGNTLNLGRALSKGDVVYCLFDKILSPEDTAKGIRIYKFQAVGGETEFTPDFTSYGVQSLYIGGEYKTPEIEYSYDSTTGKVSLQTALSAGVWVVAEMSVKQPNISPAFDRSIQEIARSANVKDSEVIVSTDTISLLDGKKVVYDIATQTSYGLPTIPDGSVISSVSAGKLNYNPGDVQVDLLPLEDSFINVINTLGRNDGAKYIGECHSVADLRNTEPTMDGQRIILKQHTAGTLLGGGVFRALIDGTGKTDNNGTVIKTVGGAAWLRVNADRVNPFMFGALGGSNDDTIPVQSCVDSGKATQLTDAHYVSNIQLKYNTSSIYGSGLHYSRLHQLPSATGNCITIKDTCSLIVLDAFGVYGTGAQQGTSFTAGTTGIYVETPSGLSADYPFHTTADPRRDLCISKVHIAGFDEYGLNIDSGNFSVTTDSLLVNHINQVGVRCATTAWTWTNIQVNTCGKQCLVLDGCGNGRIIGGKFIWANWQPYGTVGQFPGITINNSQNMVINGIEVQACGGNGIEISESYSISMNGLNTNRNGINANNTFYNIVFNKSDAVINGFVGLNYAANSGSGANSSAGNFQFLSNDCSVTINGVVETGYMGINFIGDNNIINPTNSDLSINGLVNYSKTGLQTMNETPTFDGVSTTPVYVSVPSSVGQVNGLRLSQANKDKLLYSRTAGPEGITMAAVIVPTISGAEVFNFMAIGSGFSDTSNSLHLQLVIDASGKQTIALLLGGDGTTQILSGDLPNDLKLQSGVPYHIAIGAKPGYFWWSILNIQTGKRIRRSFRGAYLAVPFNSIFGLTSSLTFFSDSNAGGDACSGVGAKVYVGMFSSENDYVASRYYNLINPVDPTKLISYRILDSSI
notes: Made by Q5 site-directed mutagenesis of the TSP2 plasmid; also called TSP2 D506A:D571A double mutant; source: E. coli BL21(DE3), purified similar to wild type TSPs
B2: D506N:E568A:D571N TSP2 (enzyme, UniProt G3M190 1-921, looked up)
chain: MTRNVEELFGGVITAPHQIPFTYKSNVGGETFLSLPFYPVTGVVTINGGMQVPLDNFEIEGNTLNLGRALSKGDVVYCLFDKILSPEDTAKGIRIYKFQAVGGETEFTPDFTSYGVQSLYIGGEYKTPEIEYSYDSTTGKVSLQTALSAGVWVVAEMSVKQPNISPAFDRSIQEIARSANVKDSEVIVSTDTISLLDGKKVVYDIATQTSYGLPTIPDGSVISSVSAGKLNYNPGDVQVDLLPLEDSFINVINTLGRNDGAKYIGECHSVADLRNTEPTMDGQRIILKQHTAGTLLGGGVFRALIDGTGKTDNNGTVIKTVGGAAWLRVNADRVNPFMFGALGGSNDDTIPVQSCVDSGKATQLTDAHYVSNIQLKYNTSSIYGSGLHYSRLHQLPSATGNCITIKDTCSLIVLDAFGVYGTGAQQGTSFTAGTTGIYVETPSGLSADYPFHTTADPRRDLCISKVHIAGFDEYGLNIDSGNFSVTTDSLLVNHINQVGVRCATTNWTWTNIQVNTCGKQCLVLDGCGNGRIIGGKFIWANWQPYGTVGQFPGITINNSQNMVINGIAVQNCGGNGIEISESYSISMNGLNTNRNGINANNTFYNIVFNKSDAVINGFVGLNYAANSGSGANSSAGNFQFLSNDCSVTINGVVETGYMGINFIGDNNIINPTNSDLSINGLVNYSKTGLQTMNETPTFDGVSTTPVYVSVPSSVGQVNGLRLSQANKDKLLYSRTAGPEGITMAAVIVPTISGAEVFNFMAIGSGFSDTSNSLHLQLVIDASGKQTIALLLGGDGTTQILSGDLPNDLKLQSGVPYHIAIGAKPGYFWWSILNIQTGKRIRRSFRGAYLAVPFNSIFGLTSSLTFFSDSNAGGDACSGVGAKVYVGMFSSENDYVASRYYNLINPVDPTKLISYRILDSSI
notes: Made by Q5 site-directed mutagenesis of the TSP2 plasmid; source: E. coli BL21(DE3), purified similar to wild type TSPs
B3: D506N:D571A TSP2 (enzyme, UniProt G3M190 1-921, looked up)
chain: MTRNVEELFGGVITAPHQIPFTYKSNVGGETFLSLPFYPVTGVVTINGGMQVPLDNFEIEGNTLNLGRALSKGDVVYCLFDKILSPEDTAKGIRIYKFQAVGGETEFTPDFTSYGVQSLYIGGEYKTPEIEYSYDSTTGKVSLQTALSAGVWVVAEMSVKQPNISPAFDRSIQEIARSANVKDSEVIVSTDTISLLDGKKVVYDIATQTSYGLPTIPDGSVISSVSAGKLNYNPGDVQVDLLPLEDSFINVINTLGRNDGAKYIGECHSVADLRNTEPTMDGQRIILKQHTAGTLLGGGVFRALIDGTGKTDNNGTVIKTVGGAAWLRVNADRVNPFMFGALGGSNDDTIPVQSCVDSGKATQLTDAHYVSNIQLKYNTSSIYGSGLHYSRLHQLPSATGNCITIKDTCSLIVLDAFGVYGTGAQQGTSFTAGTTGIYVETPSGLSADYPFHTTADPRRDLCISKVHIAGFDEYGLNIDSGNFSVTTDSLLVNHINQVGVRCATTNWTWTNIQVNTCGKQCLVLDGCGNGRIIGGKFIWANWQPYGTVGQFPGITINNSQNMVINGIEVQACGGNGIEISESYSISMNGLNTNRNGINANNTFYNIVFNKSDAVINGFVGLNYAANSGSGANSSAGNFQFLSNDCSVTINGVVETGYMGINFIGDNNIINPTNSDLSINGLVNYSKTGLQTMNETPTFDGVSTTPVYVSVPSSVGQVNGLRLSQANKDKLLYSRTAGPEGITMAAVIVPTISGAEVFNFMAIGSGFSDTSNSLHLQLVIDASGKQTIALLLGGDGTTQILSGDLPNDLKLQSGVPYHIAIGAKPGYFWWSILNIQTGKRIRRSFRGAYLAVPFNSIFGLTSSLTFFSDSNAGGDACSGVGAKVYVGMFSSENDYVASRYYNLINPVDPTKLISYRILDSSI
notes: as for B2
B4: D506N:E568Q:D571N TSP2 (enzyme, UniProt G3M190 1-921, looked up)
chain: MTRNVEELFGGVITAPHQIPFTYKSNVGGETFLSLPFYPVTGVVTINGGMQVPLDNFEIEGNTLNLGRALSKGDVVYCLFDKILSPEDTAKGIRIYKFQAVGGETEFTPDFTSYGVQSLYIGGEYKTPEIEYSYDSTTGKVSLQTALSAGVWVVAEMSVKQPNISPAFDRSIQEIARSANVKDSEVIVSTDTISLLDGKKVVYDIATQTSYGLPTIPDGSVISSVSAGKLNYNPGDVQVDLLPLEDSFINVINTLGRNDGAKYIGECHSVADLRNTEPTMDGQRIILKQHTAGTLLGGGVFRALIDGTGKTDNNGTVIKTVGGAAWLRVNADRVNPFMFGALGGSNDDTIPVQSCVDSGKATQLTDAHYVSNIQLKYNTSSIYGSGLHYSRLHQLPSATGNCITIKDTCSLIVLDAFGVYGTGAQQGTSFTAGTTGIYVETPSGLSADYPFHTTADPRRDLCISKVHIAGFDEYGLNIDSGNFSVTTDSLLVNHINQVGVRCATTNWTWTNIQVNTCGKQCLVLDGCGNGRIIGGKFIWANWQPYGTVGQFPGITINNSQNMVINGIQVQNCGGNGIEISESYSISMNGLNTNRNGINANNTFYNIVFNKSDAVINGFVGLNYAANSGSGANSSAGNFQFLSNDCSVTINGVVETGYMGINFIGDNNIINPTNSDLSINGLVNYSKTGLQTMNETPTFDGVSTTPVYVSVPSSVGQVNGLRLSQANKDKLLYSRTAGPEGITMAAVIVPTISGAEVFNFMAIGSGFSDTSNSLHLQLVIDASGKQTIALLLGGDGTTQILSGDLPNDLKLQSGVPYHIAIGAKPGYFWWSILNIQTGKRIRRSFRGAYLAVPFNSIFGLTSSLTFFSDSNAGGDACSGVGAKVYVGMFSSENDYVASRYYNLINPVDPTKLISYRILDSSI
notes: as for B2
B5: D506N:D571N TSP2 (enzyme, UniProt G3M190 1-921, looked up)
chain: MTRNVEELFGGVITAPHQIPFTYKSNVGGETFLSLPFYPVTGVVTINGGMQVPLDNFEIEGNTLNLGRALSKGDVVYCLFDKILSPEDTAKGIRIYKFQAVGGETEFTPDFTSYGVQSLYIGGEYKTPEIEYSYDSTTGKVSLQTALSAGVWVVAEMSVKQPNISPAFDRSIQEIARSANVKDSEVIVSTDTISLLDGKKVVYDIATQTSYGLPTIPDGSVISSVSAGKLNYNPGDVQVDLLPLEDSFINVINTLGRNDGAKYIGECHSVADLRNTEPTMDGQRIILKQHTAGTLLGGGVFRALIDGTGKTDNNGTVIKTVGGAAWLRVNADRVNPFMFGALGGSNDDTIPVQSCVDSGKATQLTDAHYVSNIQLKYNTSSIYGSGLHYSRLHQLPSATGNCITIKDTCSLIVLDAFGVYGTGAQQGTSFTAGTTGIYVETPSGLSADYPFHTTADPRRDLCISKVHIAGFDEYGLNIDSGNFSVTTDSLLVNHINQVGVRCATTNWTWTNIQVNTCGKQCLVLDGCGNGRIIGGKFIWANWQPYGTVGQFPGITINNSQNMVINGIEVQNCGGNGIEISESYSISMNGLNTNRNGINANNTFYNIVFNKSDAVINGFVGLNYAANSGSGANSSAGNFQFLSNDCSVTINGVVETGYMGINFIGDNNIINPTNSDLSINGLVNYSKTGLQTMNETPTFDGVSTTPVYVSVPSSVGQVNGLRLSQANKDKLLYSRTAGPEGITMAAVIVPTISGAEVFNFMAIGSGFSDTSNSLHLQLVIDASGKQTIALLLGGDGTTQILSGDLPNDLKLQSGVPYHIAIGAKPGYFWWSILNIQTGKRIRRSFRGAYLAVPFNSIFGLTSSLTFFSDSNAGGDACSGVGAKVYVGMFSSENDYVASRYYNLINPVDPTKLISYRILDSSI
notes: Made by Q5 site-directed mutagenesis of the TSP2 plasmid; also called TSP2 D506N:D571N double mutant; TSP2 asparagine double mutant; source: E. coli BL21(DE3), purified similar to wild type TSPs
B6: D506A:D571N TSP2 (enzyme, UniProt G3M190 1-921, looked up)
chain: MTRNVEELFGGVITAPHQIPFTYKSNVGGETFLSLPFYPVTGVVTINGGMQVPLDNFEIEGNTLNLGRALSKGDVVYCLFDKILSPEDTAKGIRIYKFQAVGGETEFTPDFTSYGVQSLYIGGEYKTPEIEYSYDSTTGKVSLQTALSAGVWVVAEMSVKQPNISPAFDRSIQEIARSANVKDSEVIVSTDTISLLDGKKVVYDIATQTSYGLPTIPDGSVISSVSAGKLNYNPGDVQVDLLPLEDSFINVINTLGRNDGAKYIGECHSVADLRNTEPTMDGQRIILKQHTAGTLLGGGVFRALIDGTGKTDNNGTVIKTVGGAAWLRVNADRVNPFMFGALGGSNDDTIPVQSCVDSGKATQLTDAHYVSNIQLKYNTSSIYGSGLHYSRLHQLPSATGNCITIKDTCSLIVLDAFGVYGTGAQQGTSFTAGTTGIYVETPSGLSADYPFHTTADPRRDLCISKVHIAGFDEYGLNIDSGNFSVTTDSLLVNHINQVGVRCATTAWTWTNIQVNTCGKQCLVLDGCGNGRIIGGKFIWANWQPYGTVGQFPGITINNSQNMVINGIEVQNCGGNGIEISESYSISMNGLNTNRNGINANNTFYNIVFNKSDAVINGFVGLNYAANSGSGANSSAGNFQFLSNDCSVTINGVVETGYMGINFIGDNNIINPTNSDLSINGLVNYSKTGLQTMNETPTFDGVSTTPVYVSVPSSVGQVNGLRLSQANKDKLLYSRTAGPEGITMAAVIVPTISGAEVFNFMAIGSGFSDTSNSLHLQLVIDASGKQTIALLLGGDGTTQILSGDLPNDLKLQSGVPYHIAIGAKPGYFWWSILNIQTGKRIRRSFRGAYLAVPFNSIFGLTSSLTFFSDSNAGGDACSGVGAKVYVGMFSSENDYVASRYYNLINPVDPTKLISYRILDSSI
notes: as for B2

This series concerns the molecule itself. Nature of the series: not stated; purified TSP2 site-directed mutants; how the trimeric state was shown is not told.
Consider B1, for which the “stoichiometry N” value is 3. For the protein B2, the “stoichiometry N” value was 3.

As to B3, the “stoichiometry N” value amounted to 3.

Turning to B4, the “stoichiometry N” value came out at 3. The value for B5 was 3.

As for B6, the “stoichiometry N” value worked out at 3.

The term stoichiometry N denotes the number of molecules, sites or subunits per partner or assembly.
